Data taken from patent US20220389106A1 (University of Texas, published 2022).

Biological target: T1, recombinant hu-EphA10 Fc chimera protein [the extracellular domain (Glu34-Ala565)] (human, UniProt Q5JZY3 34-565)
T1 construct: range 34-565; Purified from 293T cells; also called hu-EphA10 Fc protein; not shown: Fc part of the chimera
T1 sequence (looked up): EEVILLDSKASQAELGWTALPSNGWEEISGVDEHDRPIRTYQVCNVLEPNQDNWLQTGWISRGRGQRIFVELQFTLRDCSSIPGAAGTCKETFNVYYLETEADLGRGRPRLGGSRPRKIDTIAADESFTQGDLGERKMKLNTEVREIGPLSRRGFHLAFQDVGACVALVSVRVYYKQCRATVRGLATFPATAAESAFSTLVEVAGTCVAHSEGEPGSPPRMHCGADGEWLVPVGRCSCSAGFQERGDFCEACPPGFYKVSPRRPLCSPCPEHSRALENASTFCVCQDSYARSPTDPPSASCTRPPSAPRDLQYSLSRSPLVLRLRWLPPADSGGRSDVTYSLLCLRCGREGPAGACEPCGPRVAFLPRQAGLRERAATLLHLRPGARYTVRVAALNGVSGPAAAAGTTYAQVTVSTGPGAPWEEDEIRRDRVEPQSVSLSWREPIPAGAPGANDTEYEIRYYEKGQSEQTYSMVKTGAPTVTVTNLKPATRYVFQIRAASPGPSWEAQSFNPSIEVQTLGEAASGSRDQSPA
Experiment: ELISA screening (FIG. 1C)

Binder	binding result
anti-hu-EphA10 antibody Clone 8 (antibody, IgG1, V domains shown) VH: QVQLQQSGPELVKPGPLVKISCKASGYTFTSYDITWVKQRPGQGLEWIGWIYPGDGSTKYNEKFKGKATLTADKSSSTAYMQLSSLTSENSAVYFCARGGRLPYFDYWGQGTTLTVSS VL: NIVLTQSPASLAVSLGQRATISCRASESVDSYGNSFMHWYQQKPGQPPKLLIYLASNLESAVPARFSGSGSRTDFTLTIDPVEADDAATYYCQQNNEYPWTFGGGTKLEIK	binds
anti-hu-EphA10 antibody Clone 9 (antibody, IgG1, V domains shown, also called anti-EphA10 (clone 9); anti-EphA10 (clone 9)-pHrodo) VH: QVQLQQSGAELMKPGASVKISCKATGYTFSTYWIEWVKQRPGHGLEWIGEILPGSGRTNYKEKFKDKATFTANTSSTTAYMQLSSLTSEDSAVYYCAIDWYWGQGTTLTVSS VL: QIVLTQSPAIMSASPGEKVTITCSASSSVSYMYWFQQKPGTSPKLWIYSTSNLASGVPARFSGSGSGTSYSLTISRMEAEDAATYYCQQRNSYPPTFGGGTKLEIK	binds
anti-hu-EphA10 antibody Clone 4 (antibody, IgG1, V domains shown) VH: EVKLEESGGGLVQPGGSMKLSCVASGFTFSYYWMNWVRQSPEKGLEWVAEIRLKSNNYATHYAESVKGRFTISRDDSKSSVYLQMNNLRAEDSGIYYCTFYYGSSAWFAYWGQGTLVTVSA VL: DIQMTQSPASLSASVGETVTITCRASENIYSYLAWYQQKQGKSPQLLVYNVKTLTEGVPSRFSGSGSGTQFSLKIDSLQPEDFGSYYCQHHYVTPPTFGAGTKLELK	binds
